Measured values: US10363306B2, “Cytokines and neuroantigens for treatment of immune disorders” (East Carolina University, priority 2009, dated 2019)

What was measured:
[1] = tested on: CTLL T cells; experiment: Anti-proliferative/killing activity on CTLL T cells; assay type: cell-based, mouse; conditions: murine CTLL T cells; baculovirus supernatants
Procedure: (§1) FIG. 1. The IFNβ-NAg his-tagged fusion protein was biologically active and was purified on nickel resins. (A) To assess whether IFNβ-NAg induced class I MHC expression, thymocytes (5×10^6/ml in complete RPMI) were cultured with or without IFNβ-NAg for 2 days and then were stained with B5 (anti-MHC-I), OX18 (anti-MHC-I), R73 (anti-TCRβ), or OX81 (anti-IL4; isotype control) and were analyzed by flow cytometry. (B) To assess IFNβ-mediated anti-proliferative activity, supernatants from two independently derived IFNβ-NAg expression systems as well as supernatants from several control expression systems were added at designated titrations (x-axis) to IL-2 stimulated cultures of BN-GP T cells. (C) To assess the specificity of anti-proliferative activity, baculovirus supernatants containing IFNβ-NAg were added at designated titrations to cultures of rat (R1T, BN-GP, RsL.11T, RsL.11, or Conal.8D9) or mouse (CTLL) T cells. Proliferative assays (B & C) were pulsed with [^3H]thymidine on the second day of a 3-day culture. (D) Shown is a representative SDS-PAGE analysis of purified IFNβ-NAg. […]
(§2) Cultures were pulsed with 1 uCi of [^3H]thymidine (6.7 Ci/mmol, New England Nuclear) during the last day of a 3 or 4 day culture. […] [^3H]thymidine incorporation into DNA was measured by use of a Wallac 1450 Microbeta Plus liquid scintillation counter. […]

[2] = tested on: Conal.8D9; experiment: Anti-proliferative/killing activity on Conal.8D9 T cells; assay type: cell-based, rat; conditions: baculovirus supernatants
Procedure: as §1, §2

[3] = tested on: RsL.11 clone; experiment: Anti-proliferative/killing activity on RsL.11 T cells; assay type: cell-based, rat; conditions: baculovirus supernatants
Procedure: as §1, §2

[4] = tested on: R1T; experiment: Anti-proliferative/killing activity on R1T T cells; assay type: cell-based, rat; conditions: baculovirus supernatants
Procedure: as §1, §2

[5] = tested on: thymocytes; experiment: Induction of class I MHC expression on thymocytes (flow cytometry); assay type: cell-based; conditions: 2 days of culture
Procedure: FIG. 1. The IFNβ-NAg his-tagged fusion protein was biologically active and was purified on nickel resins. (A) To assess whether IFNβ-NAg induced class I MHC expression, thymocytes (5×10^6/ml in complete RPMI) were cultured with or without IFNβ-NAg for 2 days and then were stained with B5 (anti-MHC-I), OX18 (anti-MHC-I), R73 (anti-TCRβ), or OX81 (anti-IL4; isotype control) and were analyzed by flow cytometry. (B) To assess IFNβ-mediated anti-proliferative activity, supernatants from two independently derived IFNβ-NAg expression systems as well as supernatants from several control expression systems were added at designated titrations (x-axis) to IL-2 stimulated cultures of BN-GP T cells. (C) To assess the specificity of anti-proliferative activity, baculovirus supernatants containing IFNβ-NAg were added at designated titrations to cultures of rat (R1T, BN-GP, RsL.11T, RsL.11, or Conal.8D9) or mouse (CTLL) T cells. Proliferative assays (B & C) were pulsed with [^3H]thymidine on the second day of a 3-day culture. (D) Shown is a representative SDS-PAGE analysis of purified IFNβ-NAg.
T cells were incubated with a 1/20 titration of a concentrated supernatant containing the designated mAb for 45 minutes at 4° C. […] Data were acquired with a Becton Dickinson FACScan flow cytometer and were analyzed with the CELLQuest software program. […]

[6] = tested on: RsL.11T; experiment: Anti-proliferative/killing activity on RsL.11T T cells; assay type: cell-based, rat; conditions: baculovirus supernatants
Procedure: as §1, §2

B1: IFNβ-NAg: Fusion protein: rat IFNβ, enterokinase linker (GDDDDKG), encephalitogenic 73-87 peptide of guinea pig MBP, C-terminal 6-histidine tag (protein)
chain: IDYKQLQFRQSTSIRTCQKLLRQLNGRLNLSYRTDFKIPMEVMHPSQMEKSYTAFAIQVMLQNVFLVFRSNFSSTGWNETIVESLLDELHQQTELLEIILKEKQEERLTWVTSTTTLGLKSYYWRVQRYLKDKKYNSYAWMVVRAEVFRNFSIILRLNRNFQNGDDDDKGPQKSQRSQDENPVVHHHHHH
For B1, the “cell death of T cell line” value [1] was “did not kill”, the “cell death of T cell line” value [2] was “directly caused the death” and the “cell death of T cell line” value [3] was “directly caused the death”. The “cell death of T cell line” value [4] was “did not kill”, the “expression of MHC-I on immature thymocytes” value ([5]; 1% titration of baculovirus expression supernatant) was “induced the expression of MHC-I” and the TCRβ expression ([5]; baculovirus expression supernatant) was “did not affect TCRβ expression”. For the same molecule, the “cell death of T cell line” value [6] was “directly caused the death”.
